Tests used:
[1] = target: native MSP-3 antigen of Plasmodium falciparum clone 3D7 schizonts and merozoites (Plasmodium falciparum); assay: indirect immunofluorescence on 3D7 mature schizont infected RBCs; antibody at 3 µg/ml in ADCI
[2] = target: native MSP-3 antigen of Plasmodium falciparum clone 3D7 schizonts and merozoites (Plasmodium falciparum); assay: cell-based or functional assay
[3] = target: native MSP-3 antigen of Plasmodium falciparum clone 3D7 schizonts and merozoites (Plasmodium falciparum); assay: indirect immunofluorescence on 3D7 mature schizont infected RBCs; antibody at 15 µg/ml in ADCI

IFAT in ADCI (endpoint titre of indirect immunofluorescence) [1]: 10 titre | SGI % (specific growth inhibitory index, ADCI with monocytes, 3 µg/ml) [2]: 23% | SGI % (specific growth inhibitory index, ADCI with monocytes, 15 µg/ml) [2]: 49% | IFAT in ADCI (endpoint titre of indirect immunofluorescence) [3]: 50 titre
B1: RAM1 IgG3 (antibody, V domains shown)
VH: QVQLVQSGGGVVQPGRSLRLSCAASGFTFSSYAMHWVRQAPGKGLEWVAVISYDGSNKYYADSVKGRFTISRDNSKNTLYLQMSSLRAEDTAVYYCVKGASSWSTGTLVTVSS
VL: DIVMMQSPATLSASVGDRVTITCRASQSISSWLAWYQQKPGKAPNLLIYKASSLESGVPSRFSGSGSGTEFTLTISSLQPDDFATYYCQQYKSFPYTFGQGTRLEIKR
